Measured values reported in publication PMC12342251, “HBV capsid assembly modulators differentially modulate the assembly of wild-type and drug-resistant core protein chimeric nucleocapsids and empty capsids” (PLOS Pathogens, 2025).

Target: the molecule itself
Assay: SEC

B1: WT-Cp149 dimer (HBV core protein residues 1-149) (domain or fragment)
chain: MDIDPYKEFGATVELLSFLPSDFFPSVRDLLDTASALYREALESPEHCSPHHTALRQAILCWGELMTLATWVGVNLEDPASRDLVVSYVNTNMGLKFRQLLWFHISCLTFGRETVIEYLVSFGVWIRTPPAYRPPNAPILSTLPETTVV
notes: source: E. coli NiCo21(DE3), purified
- binding result: binds
